Side chains are listed from the residue outwards. Ends that are not written are not given here. * marks the point of attachment. Biotin = O=C1N[C@H]2[C@H](CS[C@H]2CCCCC(=O)*)N1; RADP = not defined here; Aoa = not defined here

Experiment [1] concerns the target SARS-CoV-2 Mac1 protein (WT) (SARS-CoV-2, UniProt P0DTC1 1023-1197). Briefly: AlphaScreen or HTRF. Background: Bead proximity is the source of the signal in Alpha formats.
The target of experiment [2] is MERS-CoV Mac1 protein (WT) (MERS-CoV, UniProt K9N638 1110-1273). Briefly: AlphaScreen or HTRF.
Chain of MERS-CoV Mac1 protein (WT) (K9N638 1110-1273): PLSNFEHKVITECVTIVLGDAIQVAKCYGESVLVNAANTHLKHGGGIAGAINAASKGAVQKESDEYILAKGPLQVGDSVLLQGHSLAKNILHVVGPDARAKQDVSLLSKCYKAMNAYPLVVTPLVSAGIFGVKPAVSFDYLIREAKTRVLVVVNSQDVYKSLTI

ARTK(Biotin)QTARK([Aoa-RADP])S (reading uncertain) [10 amino acid biotinylated and ADP-ribosylated peptide [ARTK(Bio)QTARK(Aoa-RADP)S]]: the binding result in experiment [1] and in experiment [2] was “binds” each time.

(Values after paper PMC10802294 (bioRxiv, 2024).)
